Data from patent US20260285970 (published 2026).
Numbering of substitutions follows the chain as printed. Blank lines part the entries; values can stand above or below the binder they belong to.

Tests used:
Experiment in all cases: ELISA
IL-2 = IL-2 (UniProt P60568)
IL-17 = target: IL-17
BSA = BSA (bovine, UniProt P02769)
IL-4 = target: T1, IL-4 (UniProt P05112)
T1 chain: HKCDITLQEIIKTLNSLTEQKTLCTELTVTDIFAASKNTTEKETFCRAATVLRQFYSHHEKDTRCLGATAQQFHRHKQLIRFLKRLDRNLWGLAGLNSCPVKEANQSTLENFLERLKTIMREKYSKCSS

Chain of IL-17 (chain, as listed by the source): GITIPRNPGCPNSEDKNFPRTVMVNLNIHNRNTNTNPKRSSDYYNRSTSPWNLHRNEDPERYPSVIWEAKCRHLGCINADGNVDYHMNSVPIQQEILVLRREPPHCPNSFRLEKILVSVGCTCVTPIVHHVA
Chain of IL-2 (P60568 21-153): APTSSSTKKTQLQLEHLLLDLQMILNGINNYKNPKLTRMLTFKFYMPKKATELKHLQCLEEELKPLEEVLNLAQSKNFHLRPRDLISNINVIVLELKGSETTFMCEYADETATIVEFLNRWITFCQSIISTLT
Chain of BSA (P02769 25-607): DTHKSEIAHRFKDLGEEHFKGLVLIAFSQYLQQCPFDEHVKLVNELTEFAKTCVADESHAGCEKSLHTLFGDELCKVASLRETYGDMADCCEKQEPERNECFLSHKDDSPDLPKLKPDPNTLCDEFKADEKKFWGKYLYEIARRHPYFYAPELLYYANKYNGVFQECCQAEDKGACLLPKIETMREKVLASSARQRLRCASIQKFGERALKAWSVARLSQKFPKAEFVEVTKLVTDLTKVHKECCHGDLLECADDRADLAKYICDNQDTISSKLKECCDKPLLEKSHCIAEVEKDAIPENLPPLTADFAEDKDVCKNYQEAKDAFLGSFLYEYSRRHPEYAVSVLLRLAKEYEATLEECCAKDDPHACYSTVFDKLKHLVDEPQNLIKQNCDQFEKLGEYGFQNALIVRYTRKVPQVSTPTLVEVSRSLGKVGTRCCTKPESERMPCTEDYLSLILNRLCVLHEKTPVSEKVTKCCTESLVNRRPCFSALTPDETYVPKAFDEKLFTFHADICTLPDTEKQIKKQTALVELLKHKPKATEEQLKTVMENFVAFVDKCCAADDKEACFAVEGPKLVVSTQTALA

binding result (IL-2): no binding
binding result (IL-17): no binding
B1: BDG33.025 (antibody, V domains shown)
VH: QMQLVESGGGVVQPGRSLRLSCAASGFTFRTYGMHWVRQAPGKGLEWVADIWYDGSNKHYADSVKGRFTITRDNSKNTLNLQMNSLRAEDTAVYYCARAPQWYLVAEPFDLWGQGTMVTVSS
VL: SYVLTQPPSVSVAPGQTARITCGGNLIGSKLVHWYQQKPGQAPVLVVYDDSDRPSLIPERFSGSNSGNTATLTISRVEAGDEADYYCQVWDSSSDGVVFGGGTKLTVL

binding result (BSA): no binding
binding result (IL-2): no binding
binding result (IL-4): no binding
binding result (IL-17): no binding
B2: BDG33.023 (antibody, V domains shown)
VH: B1 VH with T28A, D50V, K58T, V105S, P108A
VL: B1 VL with L56R, S92H, G96H
